Experimental data published in patent publication US20070219354A1.

Biological target: 2081/anti-NF IgG, polyclonal antibody generated against the SEVNF peptide
Experiment: ORIGEN ECL competition against biotinylated-SEVNF; reference SEVNF

fold less effective in competition than SEVNF: 100 fold
Binder: SEVNL [SEVNL peptide]
